Assay results reported in article PMC3418399.

What was measured:
[1] = biological target: Candida albicans ATP-binding cassette transporter CaCdr1p (Candida albicans) (UniProt Q5ANA3)
[2] = biological target: Candida albicans ATP-binding cassette transporter CaCdr1p (Candida albicans) (UniProt Q5ANA3); remark: listed apart in the source

Chain of Candida albicans ATP-binding cassette transporter CaCdr1p (Candida albicans) (Q5ANA3 whole entry): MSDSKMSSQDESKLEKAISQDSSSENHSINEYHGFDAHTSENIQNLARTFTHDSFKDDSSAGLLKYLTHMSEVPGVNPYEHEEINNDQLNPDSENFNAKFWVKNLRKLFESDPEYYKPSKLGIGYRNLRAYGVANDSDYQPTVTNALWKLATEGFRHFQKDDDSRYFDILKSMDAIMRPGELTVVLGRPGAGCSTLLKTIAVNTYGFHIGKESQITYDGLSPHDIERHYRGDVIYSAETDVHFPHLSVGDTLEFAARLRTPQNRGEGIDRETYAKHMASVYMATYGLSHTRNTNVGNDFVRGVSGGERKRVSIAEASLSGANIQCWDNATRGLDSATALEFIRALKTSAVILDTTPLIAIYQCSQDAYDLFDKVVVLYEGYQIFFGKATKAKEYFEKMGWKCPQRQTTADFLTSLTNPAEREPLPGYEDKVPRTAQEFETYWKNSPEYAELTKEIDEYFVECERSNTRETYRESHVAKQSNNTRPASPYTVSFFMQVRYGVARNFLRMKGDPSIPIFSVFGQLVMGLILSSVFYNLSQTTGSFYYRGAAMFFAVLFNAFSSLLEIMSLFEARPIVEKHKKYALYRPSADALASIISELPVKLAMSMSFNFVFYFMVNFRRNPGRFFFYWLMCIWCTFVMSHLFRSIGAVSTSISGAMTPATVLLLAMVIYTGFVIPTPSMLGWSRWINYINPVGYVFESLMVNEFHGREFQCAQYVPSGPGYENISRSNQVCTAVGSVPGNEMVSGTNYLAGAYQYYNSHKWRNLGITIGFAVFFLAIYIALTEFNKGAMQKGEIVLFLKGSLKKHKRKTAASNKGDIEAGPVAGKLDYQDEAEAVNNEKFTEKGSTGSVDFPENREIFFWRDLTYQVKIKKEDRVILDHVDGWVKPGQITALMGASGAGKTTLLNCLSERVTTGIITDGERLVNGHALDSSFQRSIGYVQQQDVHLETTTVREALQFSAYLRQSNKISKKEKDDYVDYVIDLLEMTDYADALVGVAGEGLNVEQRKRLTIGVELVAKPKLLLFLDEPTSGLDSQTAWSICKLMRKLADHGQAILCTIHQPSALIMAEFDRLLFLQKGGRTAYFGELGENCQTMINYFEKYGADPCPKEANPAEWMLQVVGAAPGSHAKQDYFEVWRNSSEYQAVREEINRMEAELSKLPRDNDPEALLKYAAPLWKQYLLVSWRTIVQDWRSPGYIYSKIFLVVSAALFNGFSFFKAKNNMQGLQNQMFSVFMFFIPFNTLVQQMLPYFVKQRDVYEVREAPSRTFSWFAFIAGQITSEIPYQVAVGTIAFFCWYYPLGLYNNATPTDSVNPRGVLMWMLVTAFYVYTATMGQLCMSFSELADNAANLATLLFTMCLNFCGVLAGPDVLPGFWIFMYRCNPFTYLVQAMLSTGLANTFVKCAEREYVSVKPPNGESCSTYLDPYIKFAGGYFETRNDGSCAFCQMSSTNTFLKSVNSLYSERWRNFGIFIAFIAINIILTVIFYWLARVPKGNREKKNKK

| Substance | IC50 of inhibition of the CaCdr1p ATPase activity, plasma membrane preparations [1] [nM] | IC50 of inhibition of the ATPase activity of CaCdr1p [2] [nM] |
| --- | --- | --- |
| RC21v3, D-NH2-FFKWQR(Mtr)RR-CONH2 (peptide) | 1100 |  |
| RC1, naked D-octapeptide D-NH2-FFKWQRRR-CONH2 |  | > 200000 |
